From publication PMC4402527

Biological target: eIF2β of rabbit reticulocyte lysate (rabbit (endogenous in reticulocyte lysate)) (UniProt P41035)
Chain of UniProt P41035 (P41035 whole entry): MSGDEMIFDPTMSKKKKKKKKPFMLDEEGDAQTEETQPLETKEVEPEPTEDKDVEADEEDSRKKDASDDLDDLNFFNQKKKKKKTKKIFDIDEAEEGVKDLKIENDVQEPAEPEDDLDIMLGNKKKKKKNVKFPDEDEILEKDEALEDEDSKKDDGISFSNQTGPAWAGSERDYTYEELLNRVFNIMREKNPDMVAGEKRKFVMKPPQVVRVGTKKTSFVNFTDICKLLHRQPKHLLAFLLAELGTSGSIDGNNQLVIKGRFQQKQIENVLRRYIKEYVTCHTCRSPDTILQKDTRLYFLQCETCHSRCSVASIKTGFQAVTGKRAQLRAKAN

Row | Binder | fold stimulation of m7GpppG-Bcl2 5′UTR-FL-poly(A)35 mRNA (25 ng) translation in nuclease treated RRL by 1.6 pmol protein (luciferase) [fold]
1 | Recombinant mutant DAP5, E862K (natural protein) MESAIAEGGASRFSASSGGGGSRGAPQHYPKTAGNSEFLGKTPGQNAQKWIPARSTRRDDNSAANNSANEKERHDAIFRKVRGILNKLTPEKFDKLCLELLNVGVESKLILKGVILLIVDKALEEPKYSSLYAQLCLRLAEDAPNFDGPAAEGQPGQKQSTTFRRLLISKLQDEFENRTRNVDVYDKRENPLLPEEEEQRAIAKIKMLGNIKFIGELGKLDLIHESILHKCIKTLLEKKKRVQLKDMGEDLECLCQIMRTVGPRLDHERAKSLMDQYFARMCSLMLSKELPARIRFLLQDTVELREHHWVPRKAFLDNGPKTINQIRQDAVKDLGVFIPAPMAQGMRSDFFLEGPFMPPRMKMDRDPLGGLADMFGQMPGSGIGTGPGVIQDRFSPTMGRHRSNQLFNGHGGHIMPPTQSQFGEMGGKFMKSQGLSQLYHNQSQGLLSQLQGQSKDMPPRFSKKGQLNADEISLRPAQSFLMNKNQVPKLQPQITMIPPSAQPPRTQTPPLGQTPQLGLKTNPPLIQEKPAKTSKKPPPSKEELLKLTETVVTEYLNSGNANEAVNGVREMRAPKHFLPEMLSKVIILSLDRSDEDKEKASSLISLLKQEGIATSDNFMQAFLNVLDQCPKLEVDIPLVKSYLAQFAARAIISELVSISELAQPLESGTHFPLFLLCLQQLAKLQDREWLTELFQQSKVNMQKMLPEIDQNKDRMLEILEGKGLSFLFPLLKLEKELLKQIKLDPSPQTIYKWIKDNISPKLHVDKGFVNILMTSFLQYISSEVNPPSDETDSSSAPSKEQLEQEKQLLLSFKPVMQKFLHDHVDLQVSALYALQVHCYNSNFPKGMLLRFFVHFYDMEIIKEEAFLAWKEDITQEFPGKGKALFQVNQWLTWLETAEEEESEEEAD | 1.65
2 | Recombinant human DAP5 (1–907) (natural protein) MESAIAEGGASRFSASSGGGGSRGAPQHYPKTAGNSEFLGKTPGQNAQKWIPARSTRRDDNSAANNSANEKERHDAIFRKVRGILNKLTPEKFDKLCLELLNVGVESKLILKGVILLIVDKALEEPKYSSLYAQLCLRLAEDAPNFDGPAAEGQPGQKQSTTFRRLLISKLQDEFENRTRNVDVYDKRENPLLPEEEEQRAIAKIKMLGNIKFIGELGKLDLIHESILHKCIKTLLEKKKRVQLKDMGEDLECLCQIMRTVGPRLDHERAKSLMDQYFARMCSLMLSKELPARIRFLLQDTVELREHHWVPRKAFLDNGPKTINQIRQDAVKDLGVFIPAPMAQGMRSDFFLEGPFMPPRMKMDRDPLGGLADMFGQMPGSGIGTGPGVIQDRFSPTMGRHRSNQLFNGHGGHIMPPTQSQFGEMGGKFMKSQGLSQLYHNQSQGLLSQLQGQSKDMPPRFSKKGQLNADEISLRPAQSFLMNKNQVPKLQPQITMIPPSAQPPRTQTPPLGQTPQLGLKTNPPLIQEKPAKTSKKPPPSKEELLKLTETVVTEYLNSGNANEAVNGVREMRAPKHFLPEMLSKVIILSLDRSDEDKEKASSLISLLKQEGIATSDNFMQAFLNVLDQCPKLEVDIPLVKSYLAQFAARAIISELVSISELAQPLESGTHFPLFLLCLQQLAKLQDREWLTELFQQSKVNMQKMLPEIDQNKDRMLEILEGKGLSFLFPLLKLEKELLKQIKLDPSPQTIYKWIKDNISPKLHVDKGFVNILMTSFLQYISSEVNPPSDETDSSSAPSKEQLEQEKQLLLSFKPVMQKFLHDHVDLQVSALYALQVHCYNSNFPKGMLLRFFVHFYDMEIIEEEAFLAWKEDITQEFPGKGKALFQVNQWLTWLETAEEEESEEEAD | 4
